{"source": "patent US20210395323A1", "about": "(UNIVERSIT T STUTTGART, published 2021)", "binders": {"B1": {"name": "EHD2-sc-mTNFR2 (mouse) (ligand)", "chain": "DFTPPTVKILQSSCDGGGHFPPTIQLLCLVSGYTPGTINITWLEDGQVMDVDLSTASTTQEGELASTQSELTLSQKHWLSDRTYTCQVTYQGHTFEDSTKKCADSNGGGSGGGSGGGSGGGSGGGSGGSGIRSDKPVAHVVANHQVEEQLEWLSQRANALLANGMDLKDNQLVVPADGLYLVYSQVLFKGQGCPDYVLLTHTVSRFAISYQEKVNLLSAVKSPCPKDTPEGAELKPWYEPIYLGGVFQLEKGDQLSAEVNLPKYLNFRESGQVYFGVIALGGGGSSSDKPVAHVVANHQVEEQLEWLSQRANALLANGMDLKDNQLVVPADGLYLVYSQVLFKGQGCPDYVLLTHTVSRFAISYQEKVNLLSAVKSPCPKDTPEGAELKPWYEPIYLGGVFQLEKGDQLSAEVNLPKYLNFRESGQVYFGVIALGGGGSSSDKPVAHVVANHQVEEQLEWLSQRANALLANGMDLKDNQLVVPADGLYLVYSQVLFKGQGCPDYVLLTHTVSRFAISYQEKVNLLSAVKSPCPKDTPEGAELKPWYEPIYLGGVFQLEKGDQLSAEVNLPKYLNFRESGQVYFGVIAL", "notes": "Hexavalent dimer of two subunits; also called hexavalent (EHD2-sc-mTNFR2)"}, "B2": {"name": "p53-sc-mTNFR2 (mouse) (ligand)", "chain": "KKPLDGEYFTLQIRGRERFEMFRELNEALELKDAQAGKEPGAPGGGSGGGSGGGSGGGSGGGSGGSGIRSDKPVAHVVANHQVEEQLEWLSQRANALLANGMDLKDNQLVVPADGLYLVYSQVLFKGQGCPDYVLLTHTVSRFAISYQEKVNLLSAVKSPCPKDTPEGAELKPWYEPIYLGGVFQLEKGDQLSAEVNLPKYLNFRESGQVYFGVIALGGGGSSSDKPVAHVVANHQVEEQLEWLSQRANALLANGMDLKDNQLVVPADGLYLVYSQVLFKGQGCPDYVLLTHTVSRFAISYQEKVNLLSAVKSPCPKDTPEGAELKPWYEPIYLGGVFQLEKGDQLSAEVNLPKYLNFRESGQVYFGVIALGGGGSSSDKPVAHVVANHQVEEQLEWLSQRANALLANGMDLKDNQLVVPADGLYLVYSQVLFKGQGCPDYVLLTHTVSRFAISYQEKVNLLSAVKSPCPKDTPEGAELKPWYEPIYLGGVFQLEKGDQLSAEVNLPKYLNFRESGQVYFGVIAL", "notes": "Dodecavalent tetramer of four subunits"}, "B3": {"name": "GCN4-sc-mTNFR2 (mouse) (ligand)", "chain": "not shown", "notes": "as for B2"}, "B4": {"name": "mouse single-chain TNF variant (D221N/A223R, sc-mTNFR2) (ligand)", "chain": "SDKPVAHVVANHQVEEQLEWLSQRANALLANGMDLKDNQLVVPADGLYLVYSQVLFKGQGCPDYVLLTHTVSRFAISYQEKVNLLSAVKSPCPKDTPEGAELKPWYEPIYLGGVFQLEKGDQLSAEVNLPKYLNFRESGQVYFGVIALGGGGSSSDKPVAHVVANHQVEEQLEWLSQRANALLANGMDLKDNQLVVPADGLYLVYSQVLFKGQGCPDYVLLTHTVSRFAISYQEKVNLLSAVKSPCPKDTPEGAELKPWYEPIYLGGVFQLEKGDQLSAEVNLPKYLNFRESGQVYFGVIALGGGGSSSDKPVAHVVANHQVEEQLEWLSQRANALLANGMDLKDNQLVVPADGLYLVYSQVLFKGQGCPDYVLLTHTVSRFAISYQEKVNLLSAVKSPCPKDTPEGAELKPWYEPIYLGGVFQLEKGDQLSAEVNLPKYLNFRESGQVYFGVIAL", "notes": "Trivalent single chain; also called TNFR2-selective mouse TNF variant; trivalent (sc-mTNFR2)"}, "B5": {"name": "p53-scTNFR2 (human) (ligand)", "chain": "KKPLDGEYFTLQIRGRERFEMFRELNEALELKDAQAGKEPGAPGGGSGGGSGGGSGGGSGGGSGGSEFLASSRTPSDKPVAHVVANPQAEGQLQWLNRRANALLANGVELRDNQLVVPSEGLYLIYSQVLFKGQGCPSTHVLLTHTISRIAVSYQTKVNLLSAIKSPCQRETPEGAEAKPWYEPIYLGGVFQLEKGDRLSAEINRPDYLNFRESGQVYFGIIALGGGGSSSRTPSDKPVAHVVANPQAEGQLQWLNRRANALLANGVELRDNQLVVPSEGLYLIYSQVLFKGQGCPSTHVLLTHTISRIAVSYQTKVNLLSAIKSPCQRETPEGAEAKPWYEPIYLGGVFQLEKGDRLSAEINRPDYLNFRESGQVYFGIIALGGGGSSSRTPSDKPVAHVVANPQAEGQLQWLNRRANALLANGVELRDNQLVVPSEGLYLIYSQVLFKGQGCPSTHVLLTHTISRIAVSYQTKVNLLSAIKSPCQRETPEGAEAKPWYEPIYLGGVFQLEKGDRLSAEINRPDYLNFRESGQVYFGIIAL"}}, "data": [{"target": "T1, TNFR2 on BV-2 cells (UniProt P25119 23-474, limits assumed)", "T1 sequence (looked up)": "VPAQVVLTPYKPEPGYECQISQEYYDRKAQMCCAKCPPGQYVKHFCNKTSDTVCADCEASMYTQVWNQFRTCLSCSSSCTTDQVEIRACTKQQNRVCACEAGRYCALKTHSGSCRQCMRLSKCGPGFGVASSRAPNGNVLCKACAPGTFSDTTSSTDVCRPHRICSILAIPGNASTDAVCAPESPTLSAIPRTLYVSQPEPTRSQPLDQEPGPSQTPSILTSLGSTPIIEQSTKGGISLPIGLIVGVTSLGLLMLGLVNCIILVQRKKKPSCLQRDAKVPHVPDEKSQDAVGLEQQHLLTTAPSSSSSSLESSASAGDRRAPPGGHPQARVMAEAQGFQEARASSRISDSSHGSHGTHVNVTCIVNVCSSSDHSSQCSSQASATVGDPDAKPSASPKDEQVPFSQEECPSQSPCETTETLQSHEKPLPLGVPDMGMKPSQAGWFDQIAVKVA", "experiment": "cell-based or functional assay", "units": {"EC50 values (nM) of Cxcl-2 secretion (BV-2 cells, ELISA)": "nM"}, "values": [{"binder": "B1", "EC50 values (nM) of Cxcl-2 secretion (BV-2 cells, ELISA)": 0.44}, {"binder": "B2", "EC50 values (nM) of Cxcl-2 secretion (BV-2 cells, ELISA)": 0.13}, {"binder": "B3", "EC50 values (nM) of Cxcl-2 secretion (BV-2 cells, ELISA)": 0.03}, {"binder": "B4", "EC50 values (nM) of Cxcl-2 secretion (BV-2 cells, ELISA)": 1.07}]}, {"target": "T2, TNFR2 on primary mouse cells (thymocytes and CD3+ T cells of C57BL/6 mice) (mouse, UniProt P25119 23-474)", "T2 sequence (looked up)": "T1 sequence (looked up)", "experiment": "cell-based or functional assay", "units": {"EC50 values (nM) of thymocyte proliferation induction (MTT assay)": "nM"}, "values": [{"binder": "B1", "EC50 values (nM) of thymocyte proliferation induction (MTT assay)": 0.07}, {"binder": "B2", "EC50 values (nM) of thymocyte proliferation induction (MTT assay)": 0.065}, {"binder": "B3", "EC50 values (nM) of thymocyte proliferation induction (MTT assay)": 0.0185}]}, {"target": "T3, mouse TNFR2-Fc fusion protein (mouse, UniProt P25119 23-258, limits assumed)", "T3 construct": "also called mTNFR2-Fc; mTNFR2", "T3 sequence (looked up)": "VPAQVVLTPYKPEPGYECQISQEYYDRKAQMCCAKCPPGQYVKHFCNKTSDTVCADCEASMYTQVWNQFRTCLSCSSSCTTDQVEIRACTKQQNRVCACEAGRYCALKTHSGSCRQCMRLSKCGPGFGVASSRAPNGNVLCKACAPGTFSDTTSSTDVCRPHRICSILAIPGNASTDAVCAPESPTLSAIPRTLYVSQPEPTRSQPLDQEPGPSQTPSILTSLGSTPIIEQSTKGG", "experiment": "ELISA, mTNFR2-Fc coated at 1 µg/ml, bound protein detected with anti-TNF F6C5", "protocol": "(§1) ELISA plates (Greiner, Frickenhausen, Germany) were coated with huTNFR1-Fc, mTNFR1-Fc, huTNFR2-Fc or mTNFR2-Fc fusion proteins at 1 μg/ml in PBS and incubated at 4° C. overnight. Residual binding sites were blocked with 2% skim milk powder in PBS at RT for 2 hours. ScTNFR2 and the complexes were diluted in 2% skim milk powder in PBS and added at concentrations in the range of 10⁻³ to 10 nM and incubated for 1 hour at RT. Between each step, non-bound proteins were removed by washing 4 times with 0.005% Tween-20 in PBS.\n(§2) Bound proteins were detected with mouse monoclonal antibodies to TNF (clone F6C5; 1 μg/ml; incubation for 1 hour at RT) and HRP-conjugated anti-mouse IgG antibodies (diluted 1:10000; incubation for 1 hour at RT), followed by incubation with tetramethylbenzidine (TMB) substrate solution. Reaction was stopped by addition of 1 M H₂SO₄ and the absorbance at 450 nm was determined with a Multiskan FC absorbance reader (Thermo Scientific, Karlsruhe, Germany) and data were analyzed using the software Microsoft Excel and GraphPad Prism 4 (GraphPad, La Jolla, Calif.) (FIG. 5). In Table 3, the calculated EC₅₀ values for the binding of TNF, scTNFR2 and the complexes to immobilized huTNFR2 and mTNFR2 based on the ELISA assay are summarized.", "units": {"EC50": "nM"}, "values": [{"binder": "B1", "EC50": 0.112}, {"binder": "B2", "EC50": 0.0744}, {"binder": "B3", "EC50": 0.0452}, {"binder": "B4", "EC50": 1.55}]}, {"target": "T4, TNFR2 on human cells (Kym-1 cells; human CD3+ T cells) (human, UniProt P20333 23-461)", "T4 sequence (looked up)": "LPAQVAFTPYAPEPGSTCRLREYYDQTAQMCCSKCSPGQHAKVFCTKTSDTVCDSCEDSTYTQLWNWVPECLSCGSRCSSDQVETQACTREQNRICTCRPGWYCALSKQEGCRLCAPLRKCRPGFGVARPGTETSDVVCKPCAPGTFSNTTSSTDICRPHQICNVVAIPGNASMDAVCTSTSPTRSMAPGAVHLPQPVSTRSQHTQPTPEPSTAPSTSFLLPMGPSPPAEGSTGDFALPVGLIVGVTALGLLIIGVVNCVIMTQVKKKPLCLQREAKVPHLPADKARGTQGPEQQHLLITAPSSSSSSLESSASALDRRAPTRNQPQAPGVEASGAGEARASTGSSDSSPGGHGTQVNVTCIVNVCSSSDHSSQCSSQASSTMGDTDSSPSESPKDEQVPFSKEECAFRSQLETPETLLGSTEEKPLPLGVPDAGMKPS", "experiment": "cell-based or functional assay", "units": {"EC50 values (nM) of cell death induction using Kym-1 cells": "nM"}, "values": [{"binder": "B5", "EC50 values (nM) of cell death induction using Kym-1 cells": 0.0106}, {"binder": "B1", "EC50 values (nM) of cell death induction using Kym-1 cells": 0.453}, {"binder": "B2", "EC50 values (nM) of cell death induction using Kym-1 cells": 0.0562}, {"binder": "B3", "EC50 values (nM) of cell death induction using Kym-1 cells": 0.0057}]}, {"target": "T5, human TNFR2-Fc fusion protein (human, UniProt P20333 23-257)", "T5 construct": "also called huTNFR2-Fc; huTNFR2", "T5 sequence (looked up)": "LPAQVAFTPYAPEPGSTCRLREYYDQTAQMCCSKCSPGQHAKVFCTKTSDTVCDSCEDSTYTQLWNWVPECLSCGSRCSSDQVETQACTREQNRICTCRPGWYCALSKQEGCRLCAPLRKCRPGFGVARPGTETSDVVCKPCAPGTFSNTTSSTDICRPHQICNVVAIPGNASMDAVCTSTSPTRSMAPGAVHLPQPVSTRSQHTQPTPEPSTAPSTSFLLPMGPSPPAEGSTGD", "experiment": "quartz crystal microbalance (Attana Cell 200), human TNFR2-Fc immobilised at high density (270 Hz), 37° C", "protocol": "(§3) Affinities of scTNFR2 and the complexes for human TNFR2-Fc were further determined by quartz crystal microbalance measurements using an Attana Cell 200 (Attana, Stockholm, Sweden). Human TNFR2-Fc was chemically immobilized on a carboxyl sensor chip according to the manufacturer's protocol at a high and low density, respectively. Binding experiments were performed in PBST buffer (PBS, 0.1% Tween 20, pH 7.4) with a flow rate of […] at 37° C. The chip was regenerated with 10 mM Glycine-HCl, pH 2.0. Before each measurement, a baseline was measured which was subtracted from the binding curve. Data were collected using the software provided by Attana for the particular device and analyzed by Attaché Office Evaluation software (Attana, Stockholm, Sweden) and TraceDrawer (Ridgview Instruments, Vange, Sweden) (FIG. 6). In Table 4, binding values for the binding of the hexavalent and dodecavalent mouse complexes to TNFR2 are summarized, which have been calculated based on quartz crystal microbalance measurements on a low density chip. In Table 5, binding values for the binding of the sc-mTNFR2 and the hexavalent and dodecavalent mouse proteins to TNFR2 are summarized, which have been calculated based on quartz crystal microbalance measurements on a high density chip.", "units": {"Kd": "nM", "koff": "s⁻¹", "kon": "M⁻¹ s⁻¹"}, "values": [{"binder": "B1", "Kd": 0.0615, "koff": "3.74e-05", "kon": 607000}, {"binder": "B2", "Kd": 0.0437, "koff": "2.69e-05", "kon": 616000}, {"binder": "B3", "Kd": 0.0527, "koff": "8.77e-05", "kon": "1.67e+06"}, {"binder": "B4", "Kd": 0.449, "koff": 0.000399, "kon": 808000}]}, {"target": "T5, human TNFR2-Fc fusion protein", "experiment": "ELISA, huTNFR2-Fc coated at 1 µg/ml, bound protein detected with anti-TNF F6C5", "protocol": "as §1, §2", "units": {"EC50": "nM"}, "values": [{"binder": "B5", "EC50": 0.094}]}, {"target": "T5, human TNFR2-Fc fusion protein", "experiment": "quartz crystal microbalance (Attana Cell 200), human TNFR2-Fc immobilised at low density (130 Hz), 37° C", "protocol": "as §3", "units": {"Kd": "nM", "koff": "s⁻¹", "kon": "M⁻¹ s⁻¹"}, "values": [{"binder": "B1", "Kd": 118, "koff": 0.063, "kon": 533000}, {"binder": "B2", "Kd": 50.9, "koff": 0.0651, "kon": "1.28e+06"}, {"binder": "B3", "Kd": 16.1, "koff": 0.0347, "kon": "2.16e+06"}]}]}
